{
  "source": "paper PMC5998024",
  "about": "“Hydrophobic pore gates regulate ion permeation in polycystic kidney disease 2 and 2L1 channels” (Nature Communications, 2018)",
  "proteins": {"B1": {"name": "maltose binding protein fused human PKD2 protein, residues 53-792, harboring the F604P GOF mutation (domain or fragment, UniProt Q13563-1 53-792, looked up)", "chain": "EIEMQRIRQAAARDPPAGAAASPSPPLSSCSRQAWSRDNPGFEAEEEEEEVEGEEGGMVVEMDVEWRPGSRRSAASSAVSSVGARSRGLGGYHGAGHPSGRRRRREDQGPPCPSPVGGGDPLHRHLPLEGQPPRVAWAERLVRGLRGLWGTRLMEESSTNREKYLKSVLRELVTYLLFLIVLCILTYGMMSSNVYYYTRMMSQLFLDTPVSKTEKTNFKTLSSMEDFWKFTEGSLLDGLYWKMQPSNQTEADNRSFIFYENLLLGVPRIRQLRVRNGSCSIPQDLRDEIKECYDVYSVSSEDRAPFGPRNGTAWIYTSEKDLNGSSHWGIIATYSGAGYYLDLSRTREETAAQVASLKKNVWLDRGTRATFIDFSVYNANINLFCVVRLLVEFPATGGVIPSWQFQPLKLIRYVTTFDFFLAACEIIFCFFIFYYVVEEILEIRIHKLHYFRSFWNCLDVVIVVLSVVAIGINIYRTSNVEVLLQFLEDQNTFPNFEHLAYWQIQFNNIAAVTVFFVWIKLFKFINFNRTMSQLSTTMSRCAKDLFGFAIMPFIIFLAYAQLAYLVFGTQVDDFSTFQECIFTQFRIILGDINFAEIEEANRVLGPIYFTTFVFFMFFILLNMFLAIINDTYSEVKSDLAQQKAEMELSDLIRKGYHKALVKLKLKKNTVDDISESLRQGGGKLNFDELRQDLKGKGHTDAEIEAIFTKYDQDGDQELTEHEHQQMRDDLEKEREDLDLD", "notes": "human PKD2 (polycystin-2, TRPP2), residues 53-792 (E53-D792), with the gain-of-function mutation F604P; cytoplasmic N- and C-termini not seen in the map; also called PKD2 F604P; F604P mutant; source: HEK293S GnTI- cells, transduced with baculovirus, purified (amylose resin, amphipols A8-35, Superdex 200)"}},
  "molecular_target": "the molecule itself",
  "assay": "cryo-EM structure; single-particle cryo-EM of purified PKD2 F604P (53-792) in amphipols A8-35; C4 symmetry imposed, reconstruction without imposed symmetry also showed C4 symmetry; 3.5 Å",
  "data": [
    {"protein": "B1", "values": [
      {"measurement": "stoichiometry N", "value": 4}
    ]}
  ]
}
